# Source: publication PMC2765514 (Biochemistry, 2009)
# T1: soluble PDZK1 purified from bacteria (human, UniProt Q5T2W1 1-519)
# T1 sequence (looked up): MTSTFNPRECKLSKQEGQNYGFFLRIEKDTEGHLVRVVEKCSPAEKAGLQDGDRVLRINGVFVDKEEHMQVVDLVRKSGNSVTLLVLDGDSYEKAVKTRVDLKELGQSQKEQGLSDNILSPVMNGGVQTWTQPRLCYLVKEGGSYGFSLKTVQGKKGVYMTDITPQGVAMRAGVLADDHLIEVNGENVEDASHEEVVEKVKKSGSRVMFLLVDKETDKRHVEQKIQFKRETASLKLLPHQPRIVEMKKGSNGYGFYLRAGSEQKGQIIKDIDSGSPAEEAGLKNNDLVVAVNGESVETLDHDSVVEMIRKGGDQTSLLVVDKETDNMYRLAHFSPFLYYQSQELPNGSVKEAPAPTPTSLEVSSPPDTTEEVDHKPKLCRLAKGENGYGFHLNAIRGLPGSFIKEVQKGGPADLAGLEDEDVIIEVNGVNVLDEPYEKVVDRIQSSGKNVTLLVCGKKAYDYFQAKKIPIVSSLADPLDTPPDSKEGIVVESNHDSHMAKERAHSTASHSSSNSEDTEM
# T2: soluble PDZK1 ΔDTEM purified from bacteria (human, UniProt Q5T2W1 1-515)
# T2 sequence (looked up): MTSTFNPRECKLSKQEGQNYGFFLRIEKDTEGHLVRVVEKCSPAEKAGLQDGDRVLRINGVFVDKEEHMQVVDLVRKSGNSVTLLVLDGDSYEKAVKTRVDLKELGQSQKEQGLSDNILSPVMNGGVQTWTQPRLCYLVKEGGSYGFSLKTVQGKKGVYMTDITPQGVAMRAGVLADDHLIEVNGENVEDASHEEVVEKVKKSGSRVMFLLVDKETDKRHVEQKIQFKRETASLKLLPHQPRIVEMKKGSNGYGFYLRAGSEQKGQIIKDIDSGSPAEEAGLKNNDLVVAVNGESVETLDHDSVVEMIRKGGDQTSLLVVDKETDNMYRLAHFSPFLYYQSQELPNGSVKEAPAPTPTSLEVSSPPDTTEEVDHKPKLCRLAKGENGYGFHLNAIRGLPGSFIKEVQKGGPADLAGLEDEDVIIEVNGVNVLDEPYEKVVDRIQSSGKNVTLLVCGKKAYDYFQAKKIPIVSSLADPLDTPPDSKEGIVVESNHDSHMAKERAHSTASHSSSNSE
# Experiments:
# [1] = molecular target: T1, soluble PDZK1 purified from bacteria; experiment: pull-down
# [2] = molecular target: T2, soluble PDZK1 ΔDTEM purified from …; experiment: pull-down
# [3] = molecular target: the molecule itself; experiment: cross-linking
binding result [1],binding result [2],Binder,stoichiometry N [3]
binds,binds,"GST-PDZK1-tail (domain or fragment, human, UniProt Q5T2W1 458-519, looked up) KAYDYFQAKKIPIVSSLADPLDTPPDSKEGIVVESNHDSHMAKERAHSTASHSSSNSEDTEM",
,,"PDZK1 PDZs 3 and 4 to the end of the protein (amino acids 227–515), soluble (domain or fragment, human, UniProt Q5T2W1 227-515, looked up) FKRETASLKLLPHQPRIVEMKKGSNGYGFYLRAGSEQKGQIIKDIDSGSPAEEAGLKNNDLVVAVNGESVETLDHDSVVEMIRKGGDQTSLLVVDKETDNMYRLAHFSPFLYYQSQELPNGSVKEAPAPTPTSLEVSSPPDTTEEVDHKPKLCRLAKGENGYGFHLNAIRGLPGSFIKEVQKGGPADLAGLEDEDVIIEVNGVNVLDEPYEKVVDRIQSSGKNVTLLVCGKKAYDYFQAKKIPIVSSLADPLDTPPDSKEGIVVESNHDSHMAKERAHSTASHSSSNSE",2
